Test results reported in the domain aggregation screens of Martell et al. (2025).

assay: soluble fraction after stress (log2 fold change); higher = more stays soluble; pooled small domains, quantitative proteomics; details: stress: 75 degC
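Note: 20 min heating vs room temperature control held 20 min.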

| Sequence | soluble fraction (log2) |
| --- | --- |
| HMAHLNYQTVDINALIRHSLQLVSQDAQSRGIALQFTPRPELTTISADPDRLNQVLLNLYLNAMQD | -0.607 |
| HMAHLSPNDAARLVGVSRPLLNQILDEGRITFFETAGGHRKIKLAAVLAYIKERDEVAAQLAAART | -0.724 |
| HMAHSDEAWSVARRVARELDKILDGAGPRRTALVRAAAELRLSTRQIYNLLARYRADRTVTSLLPRR | -0.27 |
| HMAHSWEAIRVKLQQIIDEEDKTKPLNDDQIKEKLAEAGIPNLARRTVAKYRKLLNIPTARFRKR | -0.993 |
| HMAIDINKIYSEIKKKIPNQDNHIKEILSIIWRDFNNYQNIKSRSILINGEKSSPKKEIFNIIEDNINIPV | 0.0633 |
| HMAIDPLLDKGYEQYDKGEFTEAVKSFNRAIEIDPKNAEAHFLRAMTYQGLALSKLAVADLEKAIV | 0.0903 |
| HMAIGDYYINASALNVRSGEGTNYRIIGALPQGQKVQVISENSGWSKINYNGQTGYIGTRYLSKTPV | -0.264 |
| HMAIHTSVTEHGEHDLTVRMEMEQVFAIEMAVVSHEQATMLERTFKANAEAIYQKLLGVMTQEYP | -2.42 |
| HMAISEEEATNLALERVPGASAQDLRIQLEFDDGVQKYEGDIIYDGKEYDFEIDANTGTFLEWSE | -0.0521 |
| HMAISSADRIVAELRTWISGASPGTQLPSSRTLAARYGASPVTVQKALHTLAGMGLVEARPGAGTFVRRQS | -1.42 |
| HMAITVPEGATLSDAAVLLKQAGAVRSADAFLTRAKVFGGSTPIKAGEFVIPVQASNKDILAILQGGK | 0.0742 |
| HMAKIATTVYEQIRTAILNGELSNSERLVEEDLAVSMGISRTPVREALRRLAAEGLVDVSPNRGARVAE | -0.27 |
| HMAKINFTSDAIDIGMVTRNDIEMLSFYQNVLGLTKDMEIPFPGLGVVNKLSFGSGFIKILVL | 0.0804 |
| HMAKLGITQREQEVLQLLVTGKTYKEIAAELFISLPTVKTHVSNIYSKAKVRNRLELSNLINYI | -3.37 |
| HMAKNYYEILGLKSDATLPEIKKAFKKLSKKFHPDKNRDDDGYFESMFKSINEAYQVLIDEDKRATFDSHH | -0.758 |
| HMAKPAALLFEHRFDGMAEMRFRENIVKNDDGSYTYDEYFLSMLDRAGLEKIVQENMEVWIAYAKQ | -2.1 |
| HMAKPVKSPLPGSVIKVAVKVGQQIKRGDLLLTLESMKMENSILAEKDGVVKNIHVQAGQSVMQDDLLLDI | -0.88 |
| HMAKPVNISAEPYHYDPTRFRVTFELPRLSDQPRKRIRKVAPAGLDREQALAWAKRLEREVLHELLR | -1.08 |
| HMAKVSVNIILKDGVDQTTFVNDVTSNTEVDLKNQLISLPQMVVLSVEEDYINTLKSHSSISILELDE | -0.296 |
| HMALALDDLFDRYEQLQDQSLGDKTEEGQELRAMIRAYIEQEGLSVRVTRSTTNRELLELIEQEMEG | -0.306 |
| HMALENTDLYAHLRLSHTASVPEIQAALSARVKHMPLQTWLLARKWLLHPRLRERYDGMWSVRFGA | -2.87 |
| HMALGRTGEVYLPIPAGRAGHGKISITLQGALREVDAVTAGEALPRGTSVRVVDVAGNGVLLVEK | -0.206 |
| HMALHDTLSYEEYLDLGLNGKADSAEKRELVAHALHLGRPNAKTLYKRLNMLQLNRKDVAALLEQ | 0.097 |
| HMALHLPTTTINGRQYYYFKSKEKITVYGLSKRLGLTRQEIVEHNPSAVDGIKRGSTLYFPVDEFAD | -2.12 |
| HMALLKRQDEILMYLYTQNKWITGNELAQLFHVSLRTIRNDISFINTEKSNSVLSNRNKGYHIAKDFVYNE | -1.26 |
| HMALPDSEKRQWLVDEVNERGLKLPDDVLEYLFARVGRSQAHLVDVIEKLDFESLAQSRKLTIPFVREVLK | -0.225 |
| HMALPRYFFRTRENGAVLFKTPVNNHQNRLEMHQIAAINIRNETVKPLGDTVLTDEETELIADWMRERKTV | -0.782 |
| HMALSVRNRMSDLLRMLGDGEFHRFENLFSLEEGRHGIVVTFLAMLELAKEQLVEISQGESLAPIYLKSLA | -1.05 |

| Sequence | soluble fraction (log2) |
| --- | --- |
| HMAMDVKEVLLPGVGLRYEFDNSDGDRIGVIAKRSGDFEVVRYTAADRDAAQPMFRLTDEEADALAQILGA | 0.224 |
| HMAMDYYAIGQRIRKFRKAHDWSQEELAEKVEISTTHMSHIETGSTKLSLPVLVSLANVLDVRTDDLLF | -3.81 |
| HMAMKFQDIVRQKRKELGLTQEQAARRLGVSPAAVSKWESGQSLPDTPLFAPLARLLHTDLNTLLSFE | -1.21 |
| HMAMTQNVDLAGRIVFNEKKEEVFNFGKHKGRSVAEVFEKEPSYYDWMLKGDFPAETKQVLTALRLRGLS | -0.186 |
| HMAMTRTEYLNQLKHYLKRLPHTDYEEAMDYFKEYFEEAGPENEAQVIQDLGNPKEAAYEILSQLL | -0.0595 |
| HMANDNFPLKLGSKGPRVLQLKTMLIQSLSNDALPKGRSSDAFDSELEALLSRNNLPTVIDETNFRVLTK | -0.0514 |
| HMANFGSILRNLRISRDITQSELAAKLGVSRSTVGMYETGAREPDFEAMEAIADTFNVDMDYLVGRSQ | -0.258 |
| HMANLAQITKTNAVALALKDVGAYNSEDLMKFIDLDKVVLGEDGKPQLEDTINSLKESSPYLFQ | 0.134 |
| HMANMTAKQINMFGDKLSRDKDFQSYYIAKSGDSREQYAQDIKGKLLDPFYVNAWMPYLEKIGFVPS | 0.0935 |
| HMANPEFAGYINGKPYFGPTHQHRGVKMLGATHTRNPHPLVWDSIAESLANYDSRFRWSGGQIL | -0.853 |
| HMANTAKVNVDTANLRETADENSKILKQLSLNDNLEVVEETGDWYKVKNSNVTGYVRKDLVTVEN | 0.31 |
| HMANTLDPMDLKQIISLHLDGFSNRKIGATLGISRNTVNTYMRLFSVSDYALKELLTLDNATLDKLFPS | -2.06 |
| HMANYYEILGVKHDATEAEIKAAYKQAAKSAHPDAGGSNEKMQEVNAAWEVLGNAQKRAEYDARMA | 0.173 |
| HMAPAGGITRQDLFAWGLMGGEGSREKRQQLKKSLGLPSHLGTSGFLDALNLIATRDQVEALLHK | -0.564 |
| HMAPAILTVQVKPDKIREIIGPGGKMIRMIQSETNTRVEVDDSGLVKIAAVSKEEGEAALKMVSDITME | 0.331 |
| HMAPDAPDGFVHRWIRAEMLGQEDKSNVHRRMQEGYELVRADEYPDSDLPVAEGRYAGIIGVGGLLLARF | -0.206 |
| HMAPDDTAVWSAFIGWFRTAPDGPNPLGAYAAKLGEEGLDAAEVGRRMTVIVRLFAEKPEGAEVFYDRTYA | -2.66 |
| HMAPDYYALLGVPRNATTAEVRKAFRGKALEQHPDRGGDEESFRLLSKAYDVLSDSERRKYYDRTG | -0.0151 |
| HMAPEKLVHELVGLSLRAGNLDLLAATLSAHKTVLSKESTAEYVKAGLAIEPNHLPLRVLAEQDLGWS | -1.17 |
| HMAPFVIQQGQDVRLISKGPGFAVSNDGKALTNAAEGQLARARTANGQTVSGIARQGGIIEIA | -0.0321 |
| HMAPGIGDSKYFSHIYEMKHIDTIIDNDKGDRLIEHFEIQDTPFIFTKHWTSAFGFSKRQQEIITDYLSYF | 0.12 |
| HMAPGVHVEALLPYTAGSLVSQIREYGNVDAVEYRDTGILLQADVDERLAAQIMDQALEDPV | 0.0715 |
| HMAPLADQIVDLLKEHDGFLPLHDNSSPEDIRATVGTSKKAFKQAIGGLFREKRIVIGPTGIRLIS | -0.694 |
| HMAPLATIHVSSLSQKPFYLYGTFEDRRGNHLFFLEQIMGENKSIPVAMPSSAINPKIHASLTPPKG | -0.494 |
| HMAPLQDENGDLTFSYNGKTYTVNVNSEEDRNSFAEDFNKENGKKFSWFKERAGLQHYVFYDTEM | -0.00699 |
| HMAPLVTLEADGNGAVKLSNLAGHSIREVAGALGGAGLSLIPVGSGTSWKQNPAPGTVLHSGDTVTVYF | 0.177 |
| HMAPPIQQQVESLMNSFAKIGVTVPMLESRLQHAMSAVTANELVMLRKIGASIRDGFATVAEQFPA | -1.14 |
